{
  "source": "the nanobody polyreactivity screen of Harvey et al. (2022)",
  "data": [
    {"assay": "yeast display, Sf9 membrane polyspecificity reagent, FACS + sequencing; frameworks hold sequencing errors", "procedure,_shortened": "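In a synthetic yeast display library (Saccharomyces cerevisiae BJ5465), nanobody expression was induced with galactose for 36–48 hours. FACS gates were set low and high (top ~1%) using anti-HA fluorescence for expression and streptavidin fluorescence for binding of the Sf9 membrane reagent. Each polyreactivity label is drawn from the gate of origin.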", "values": [
      {"sequence": "QVQLVESGGGLVQAGGSLRLSCAASGNIIVFYAMGWYRQAPGKEREFVAAITSGGSTNYADSVKGRFTISRDNAKNTVYLQMNSLKPEDTAVYYCAGRQWFSHRRWGGSRYDYWGQGTQVTVSS", "polyreactivity (PSR sort gate)": "high polyreactivity"},
      {"sequence": "QVQLVESGGGLVQAGGSLRLSCAASGNIIWGNAMGWYRQAPGKERELVAAISRRSGSTYYADSVKGRFTISRDNAKNTVYLQMNSLKPEDTAVYYCNTAGRVGTYDYWGQGTQVTVSS", "polyreactivity (PSR sort gate)": "high polyreactivity"},
      {"sequence": "QVQLVESGGGLVQAGGSLRLSCAASGNILARGYAMGWYRQAPGKERELVAAITFNDGSTYYADSVKGRFTISRDNAKNTVYLQMNSLKPEDTAVYYCAADFSYVYYLYDYWGQGTQVTVSS", "polyreactivity (PSR sort gate)": "low polyreactivity"},
      {"sequence": "QVQLVESGGGLVQAGGSLRLSCAASGNILASNAMGWYRQAPGKERELVAAITISGDTTYYADSVKGRFTISRDNAKNTVYLQMNSLKPEDTAVYYCNAVSFIVNGGYDGDYWGQGTQVTVSS", "polyreactivity (PSR sort gate)": "low polyreactivity"},
      {"sequence": "QVQLVESGGGLVQAGGSLRLSCAASGNILGYNAMGWYRQAPGKERELVAAISWIGGSTYYADSVKGRFTISRDNAKNTVYLQMNSLKPEDTAVYYCAARRVIYYPAFYYDYYYWGQGTQVTVSS", "polyreactivity (PSR sort gate)": "low polyreactivity"},
      {"sequence": "QVQLVESGGGLVQAGGSLRLSCAASGNILGYNAMGWYRQAPGKERELVAAISWIGGSTYYADSVKGRFTISRDNAKNTVYLQMNSLKPEDTAVYYCAARYRTYFTYEFWGQGTQVTVSS", "polyreactivity (PSR sort gate)": "low polyreactivity"},
      {"sequence": "QVQLVESGGGLVQAGGSLRLSCAASGNILPSNAMGRYREAPGKEWELVAAITWSVGRTYYADSVKGRFTISRDNAKYTVYLQMNSLKPEDTAVYYCAADDYWDDVYYYVTGSTGYDYWGQGTQVTVSS", "polyreactivity (PSR sort gate)": "low polyreactivity"},
      {"sequence": "QVQLVESGGGLVQAGGSLRLSCAASGNILWFNAMGWYRQAPGKERELVASITSSGGRTYYADSVKGRFTISRDNAKNTVYLQMNSLKPEETAVYYCAAEYYYGWTYSGGLGFLGYNYWGQGTQVTVSS", "polyreactivity (PSR sort gate)": "low polyreactivity"},
      {"sequence": "QVQLVESGGGLVQAGGSLRLSCAASGNIRYYAMGWYRQAPGKERELVAAITRRSGNTYYADSVKGRFTISRDNAKNTVYLQMNSLKPEDTAVYYCAVVLYTYLTPYYEMDYWGQGTQVTVSS", "polyreactivity (PSR sort gate)": "high polyreactivity"},
      {"sequence": "QVQLVESGGGLVQAGGSLRLSCAASGNNFETNAMGWYRQAPGKERELVAAISASGGSTYYADSVKGRFTISRDYAKNTVYLQMNSLKPEDTAVYYCAARRAVRLYYWGQGTQVTVSS", "polyreactivity (PSR sort gate)": "high polyreactivity"},
      {"sequence": "QVQLVESGGGLVQAGGSLRLSCAASGNNFSAYAMGWYRQAPGKERELVATITSGGRTYYADSVKGRFTISRDNAKNTVYLQMNSLKPEDTAVYYCAADGPYYSPYYYWGQGTQVTVSS", "polyreactivity (PSR sort gate)": "low polyreactivity"},
      {"sequence": "QVQLVESGGGLVQAGGSLRLSCAASGNNLRYYAMGWYRQAPGKERELVAAITSSGGSTYYADSVKGRFTISRDNAKNTVYLKMNSLKPEDTAVYYCAAVFSYSRYNYWGQGTQVTVSS", "polyreactivity (PSR sort gate)": "high polyreactivity"},
      {"sequence": "QVQLVESGGGLVQAGGSLRLSCAASGNTFAGNAMGWYRLAPGKERELVAAISYSGGSTYYADSVKGRFTISRDNAKNNVYLQMNSLKPEDTAVYYCNAPQPGNGRTRSRYYYWGQGTQVTVSS", "polyreactivity (PSR sort gate)": "high polyreactivity"},
      {"sequence": "QVQLVESGGGLVQAGGSLRLSCAASGNTFDFYAMGWYRQAPGKEREFVAAISNGGSTTYADSVKGRFTISRDNAKNTVYLQMNSLKPEDTAVYYCAADPRNAEYDDASMDYWGQGTQVTVSS", "polyreactivity (PSR sort gate)": "high polyreactivity"},
      {"sequence": "QVQLVESGGGLVQAGGSLRLSCAASGNTFDIYAMGWYRQAPGKERELVAAISSSGGSTYYADSVKGRFTISRDNAKNTVYLQMNSLKPEDTAVYYFNARHRQWARGYWGQGTQVTVSS", "polyreactivity (PSR sort gate)": "high polyreactivity"},
      {"sequence": "QVQLVESGGGLVQAGGSLRLSCAASGNTFDVYAMGWYRQAPGKEREFVARISGRVGSTYYADSVKGRFTISRDNAKNTVYLQMNSLKPEDTAVYYCAARGRVKYVYGGFGYWGQGTQVTVSS", "polyreactivity (PSR sort gate)": "high polyreactivity"},
      {"sequence": "QVQLVESGGGLVQAGGSLRLSCAASGNTFEDYAMGWYRQAPGKERELVAAINSGGSTNYADSVKGRFTISRDNAKNTVYLQMNSLKPEDTAVYYCAAEPGEGFDYWGQGTQVTVSS", "polyreactivity (PSR sort gate)": "low polyreactivity"},
      {"sequence": "QVQLVESGGGLVQAGGSLRLSCAASGNTFEYYVMGWYRQAPGKERELVAAITWSTGSTYYADSVKGRFTISRDNAKNTVYLQKNSLKPEDTAVYYCAALYYFIFGRPTRFDYWGQGTQVTVSS", "polyreactivity (PSR sort gate)": "low polyreactivity"},
      {"sequence": "QVQLVESGGGLVQAGGSLRLSCAASGNTFFYYAMGWYRQAPGKERELVAAINRSGGSTYYADSVKGRFTISRDNAKNTVYLQMNSLKPEDTAVYYCARVLPGGWKSRISDYWGQGTQVTVSS", "polyreactivity (PSR sort gate)": "low polyreactivity"},
      {"sequence": "QVQLVESGGGLVQAGGSLRLSCAASGNTFGIYAMGWYRPAPGKERELVAAISSGTSTNYADSVKGRFTISRDNAKNTVYLQMNSLKPEDTAVYYCNADDQYQDVREDYWGQGTQVTVSS", "polyreactivity (PSR sort gate)": "low polyreactivity"},
      {"sequence": "QVQLVESGGGLVQAGGSLRLSCAASGNTFGNYGMGWYRQAPGKEREFVAAITSRGTSSYYADSVKGRFTISRDNAKNTVYLQMNSLKPEDTAVYYCNARPRYKYPRYDYWGQGTQVTVSS", "polyreactivity (PSR sort gate)": "high polyreactivity"},
      {"sequence": "QVQLVESGGGLVQAGGSLRLSCAASGNTFGYYALGWYRQAPGKERELVAGISSGGSTNYADSVKGRFTISRDNAKKTVYFQMNSLKPEDTAVYYCNARRYWLRYDYWGQVTQVTVSS", "polyreactivity (PSR sort gate)": "low polyreactivity"},
      {"sequence": "QVQLVESGGGLVQAGGSLRLSCAASGNTFHSYVMGWYRQAPGKERELVAAITSGGSTYYADSVKGRFTISRDNAKNTVYLQMNSLKPEDTAVYYCAVDAWTGESYWEHYYWGQGTQVTVSS", "polyreactivity (PSR sort gate)": "low polyreactivity"},
      {"sequence": "QVQLVESGGGLVQAGGSLRLSCAASGNTFIDYAMGWYRQAPGKETELVAAITRGGRTNYADSVKGRFTISRDNAKNTVYLQMNSLKPEDTAVYYCAAALRRRRADFDYWGQGTQVTVSS", "polyreactivity (PSR sort gate)": "high polyreactivity"},
      {"sequence": "QVQLVESGGGLVQAGGSLRLSCAASGNTFIRYAMGWYRQAPGKEREFVATITKRGGSTYYADSVKGRFTISRDNAKNTVYLQMNSLKPEDTAVYYCARGPSGTPNGNTPYGDNRYNSWGQGTQVTVSS", "polyreactivity (PSR sort gate)": "low polyreactivity"},
      {"sequence": "QVQLVESGGGLVQAGGSLRLSCAASGNTFKYYAMGWYRQAPGKERELVAAISYSGGSTYYADSVKGRFTISRDNAKNTVYFQMNSLKPEDTAVYYCAADLDSERYFLGQGTQVTVSS", "polyreactivity (PSR sort gate)": "low polyreactivity"},
      {"sequence": "QVQLVESGGGLVQAGGSLRLSCAASGNTFLPYAMGWYRQAPGKERELVAAISWSGGSTYYADSVKGRFTISRDNAKNTVYLQMNSLKPEDTAVYYCARRGYQRYLSSYYYWGQGTQVTVSS", "polyreactivity (PSR sort gate)": "high polyreactivity"},
      {"sequence": "QVQLVESGGGLVQAGGSLRLSCAASGNTFLYYAMGWYRQAPGKEMELVASINLSDGSTYYADSVKGRFTISRDNAKNTVYLQMNSLKPEDTAVYYCAAVYGGYTIYDYWGQGTQVTVSS", "polyreactivity (PSR sort gate)": "low polyreactivity"},
      {"sequence": "QVQLVESGGGLVQAGGSLRLSCAASGNTFNKYAMGWYRQAPGKERELVAAISYSGGSTYYADSVKGRFTISRDNAKNTVYLQMNSLKPEDTAVYYCNAVYYVYPRRYDYWGQGTQVSVSS", "polyreactivity (PSR sort gate)": "high polyreactivity"},
      {"sequence": "QVQLVESGGGLVQAGGSLRLSCAASGNTFNPNAMGWYRQAPGKERELVAVIRFRGGSTYYADSVKGRFTISRDNAKNTVYLQMNSLKTEDTAVYDCAADFLYYYLRYYYWGQGTQVTVSS", "polyreactivity (PSR sort gate)": "high polyreactivity"},
      {"sequence": "QVQLVESGGGLVQAGGSLRLSCAASGNTFPLYAMGWYRQAPGKEREMVAAITSSAGSTYYADSVKGRFTISRDNAKNTVYLQMNSLKPEDTAVYYCNARRSDGKVVGYSYSHRNVEYWGQGTQVTVSS", "polyreactivity (PSR sort gate)": "low polyreactivity"},
      {"sequence": "QVQLVESGGGLVQAGGSLRLSCAASGNTFPPNAMGWSRQAPGKERELVAAISWSGDSTYYADSVKGRFTISRDNAKNTVYLQMNSLKPEDTAVYYCAAAIFGEYEYWGQGTQVTVSS", "polyreactivity (PSR sort gate)": "low polyreactivity"},
      {"sequence": "QVQLVESGGGLVQAGGSLRLSCAASGNTFPPNAMGWYRQAPGKERELVAAISWSGDSTYYADSVKGRFTISRDNAKNTVYLQMNSLKPEDTAVYYCAAAIFGEYEYWGQGTQVTVSS", "polyreactivity (PSR sort gate)": "low polyreactivity"},
      {"sequence": "QVQLVESGGGLVQAGGSLRLSCAASGNTFREYTMGWYRQAPGKERELVAGISGSGGRTYYADSVKGRFTISRDNAKNTVYLQMNSLKPEDTAVYYCNARWYYGIGYNYWGQGTQVSVSS", "polyreactivity (PSR sort gate)": "high polyreactivity"},
      {"sequence": "QVQLVESGGGLVQAGGSLRLSCAASGNTFRWYDMGWYRQAPGKERELVAGITRVGCTNYADSVKGRFTISRDNAKNTVYLQMNSLKPEDTAVYYCAARPRWFYGYPYGIIGYDYWGQGTQVTVSS", "polyreactivity (PSR sort gate)": "high polyreactivity"},
      {"sequence": "QVQLVESGGGLVQAGGSLRLSCAASGNTFSTNAMGWYRHAPGKERELVASISTNGGSTYYADSVKGRFTISRDNAKQTVYLQKNSLKPEDTAVYYCAAYVDWGVWAYLYEYWGQGTQVTVSS", "polyreactivity (PSR sort gate)": "low polyreactivity"},
      {"sequence": "QVQLVESGGGLVQAGGSLRLSCAASGNTFTFYAMGWYRQAPGKERELVASITGRGGSTYYADSVKGRFTISRDNAKNTVYLQMNSLKPEDTAVYYCNADLPAYGLQGDDYWGQGTQVTVSS", "polyreactivity (PSR sort gate)": "low polyreactivity"},
      {"sequence": "QVQLVESGGGLVQAGGSLRLSCAASGNTFTYYAMGWYRQAPGKERELVAAINIDVASTYYADSVKGRFTISRDIAKNTVYLQMNSLKPEDTAVYYCAAEVGVYPVYWYDYWGQGTQVTVSS", "polyreactivity (PSR sort gate)": "low polyreactivity"},
      {"sequence": "QVQLVESGGGLVQAGGSLRLSCAASGNTFVKYTMGWYRQAPGKERELVAAITWSGGSTSYADSVKGRFTLSRDNAKNTVYLQMNSLKPEDTAVYYCAAAWSHSRWDTHDYWGQGTQVTVSS", "polyreactivity (PSR sort gate)": "low polyreactivity"},
      {"sequence": "QVQLVESGGGLVQAGGSLRLSCAASGNTFWFYGMGWYRQAPGKERELVAAITSGGSTDYADSVKGRFTISRDNAKNTVYLLLNSLKPEDTAVYYCAAEPVAYYGSSYGYWGQGTQVTVSS", "polyreactivity (PSR sort gate)": "low polyreactivity"},
      {"sequence": "QVQLVESGGGLVQAGGSLRLSCAASGNTFWGNAMGWYRQAPGKERELVATISASSGSTYYADSVKGRFTISRDNAKNTVYLQMNSLKPEDTAVYYCAKTALRYLKHGRTKGDYWGQGTQVTVSS", "polyreactivity (PSR sort gate)": "low polyreactivity"}
    ]}
  ]
}
